In publication PMC10954480:

Biological target: 6x His-tagged RecB nuclease domain (RecB^928–1180) (Escherichia coli) (UniProt P08394)
Assay: pull-down

Chain of 6x His-tagged RecB nuclease domain (RecB^928–1180) (Escherichia coli) (P08394 928-1180): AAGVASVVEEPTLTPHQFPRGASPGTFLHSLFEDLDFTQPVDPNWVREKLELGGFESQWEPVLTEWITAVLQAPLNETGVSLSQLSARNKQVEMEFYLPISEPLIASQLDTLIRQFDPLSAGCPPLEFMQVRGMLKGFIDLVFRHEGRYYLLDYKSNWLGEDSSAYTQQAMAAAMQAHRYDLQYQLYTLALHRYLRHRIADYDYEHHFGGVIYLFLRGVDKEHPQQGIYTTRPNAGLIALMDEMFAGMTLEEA

RecB^1–927CD, truncated RecBCD enzyme lacking the RecB nuclease domain, P08394 1-927; P07648 1-1122; P04993 1-608
stoichiometry N (moles RecB^hCD per mole RecB^n): 0.95
